Experimental data as given in patent US20220064312A1 (SHIONOGI, published 2022).

Tests used:
[1] = molecular target: T1, human CCR8 (human, UniProt P51685 1-355); test: cell-based or functional assay
[2] = molecular target: hCCR8 (K35A) (human, UniProt P51685 1-355); test: flow cytometry, transfected Expi293 cells
[3] = molecular target: T2, human CCR4 (human, UniProt P51679 1-360); test: flow cytometry, transfected Expi293 cells
T2 construct: also called hCCR4
T2 sequence: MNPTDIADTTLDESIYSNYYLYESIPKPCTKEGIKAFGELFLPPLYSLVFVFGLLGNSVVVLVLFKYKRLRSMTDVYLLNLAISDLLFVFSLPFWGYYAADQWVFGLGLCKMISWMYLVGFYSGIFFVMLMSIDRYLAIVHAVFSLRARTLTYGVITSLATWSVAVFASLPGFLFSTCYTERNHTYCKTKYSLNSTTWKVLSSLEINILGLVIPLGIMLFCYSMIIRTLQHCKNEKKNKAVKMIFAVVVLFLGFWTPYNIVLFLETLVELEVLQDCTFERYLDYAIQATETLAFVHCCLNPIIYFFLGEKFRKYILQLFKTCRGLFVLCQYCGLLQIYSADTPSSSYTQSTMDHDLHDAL

[4] = molecular target: hCCR8 (Y17A) (human, UniProt P51685 1-355); test: flow cytometry, transfected Expi293 cells
[5] = molecular target: T3, mouse CCR8 (mouse, UniProt P56484 1-353); test: flow cytometry, transfected Expi293 cells
T3 construct: also called mCCR8
T3 sequence: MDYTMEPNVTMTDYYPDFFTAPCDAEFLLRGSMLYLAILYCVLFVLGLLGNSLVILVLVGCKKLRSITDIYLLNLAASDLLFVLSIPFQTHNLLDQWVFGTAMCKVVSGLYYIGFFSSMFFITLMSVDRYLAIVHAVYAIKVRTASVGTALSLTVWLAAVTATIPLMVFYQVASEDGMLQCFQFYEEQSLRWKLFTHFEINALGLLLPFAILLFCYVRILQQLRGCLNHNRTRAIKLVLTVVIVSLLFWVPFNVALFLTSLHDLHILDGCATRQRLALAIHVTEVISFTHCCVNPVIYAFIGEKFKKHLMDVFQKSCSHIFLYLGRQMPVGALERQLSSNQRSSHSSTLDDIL

[6] = molecular target: T4, N-ter hCCR4-hCCR8 (human); test: flow cytometry, transfected Expi293 cells
T4 construct: chimera on Expi293 cells; remaining hCCR8 ranges derived from the stated swapped ranges and the 355-residue length; also called N-terminal region human CCR4-substituted human CCR8
T4 chain: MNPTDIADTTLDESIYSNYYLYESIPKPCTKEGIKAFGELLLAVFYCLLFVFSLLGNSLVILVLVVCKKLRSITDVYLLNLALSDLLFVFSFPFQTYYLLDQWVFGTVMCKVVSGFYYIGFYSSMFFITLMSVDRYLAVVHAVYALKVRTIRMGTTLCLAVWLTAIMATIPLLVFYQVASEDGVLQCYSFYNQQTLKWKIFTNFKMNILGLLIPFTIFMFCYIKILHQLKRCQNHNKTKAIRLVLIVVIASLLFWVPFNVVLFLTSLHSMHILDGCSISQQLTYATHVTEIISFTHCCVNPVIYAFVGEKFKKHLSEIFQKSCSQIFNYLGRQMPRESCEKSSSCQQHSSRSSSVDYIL

[7] = molecular target: T5, loop2 hCCR4-hCCR8 (human, UniProt P51685 1-355); test: flow cytometry, transfected Expi293 cells; Δ = significantly reduced vs hCCR8
T5 construct: chimera on Expi293 cells; hCCR8 ranges derived; also called loop2-human CCR4-substituted human CCR8

[8] = molecular target: T6, loop1 hCCR4-hCCR8 (human, UniProt P51685 1-355); test: as above
T6 construct: chimera on Expi293 cells; hCCR8 ranges derived; also called loop 1-human CCR4-substituted human CCR8

[9] = molecular target: T1, human CCR8; test: cell-based or functional assay; remark: listed apart in the source

T1 sequence (P51685 whole entry): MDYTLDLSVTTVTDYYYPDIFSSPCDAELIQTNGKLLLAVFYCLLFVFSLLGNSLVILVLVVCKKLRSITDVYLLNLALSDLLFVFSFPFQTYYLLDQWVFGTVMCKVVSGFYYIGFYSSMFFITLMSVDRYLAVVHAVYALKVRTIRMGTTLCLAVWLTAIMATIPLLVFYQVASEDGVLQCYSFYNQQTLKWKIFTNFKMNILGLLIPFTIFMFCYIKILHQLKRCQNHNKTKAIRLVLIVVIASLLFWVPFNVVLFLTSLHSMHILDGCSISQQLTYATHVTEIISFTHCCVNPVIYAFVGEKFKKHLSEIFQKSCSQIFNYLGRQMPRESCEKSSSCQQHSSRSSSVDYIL
hCCR8 (Y17A), sequence (P51685 whole entry Y17A): as the sequence (P51685 whole entry) above, with Y17A counted along it

- IC50 (nM), Ca2+ influx by 200 nM hCCL1 [1]: 0.36 nM
- binding result [2]: no binding
- binding result [3]: no binding
- binding result [4]: no binding
- binding result [5]: no binding
- binding result [6]: no binding
- binding result [7]: binds
- binding result [8]: binds
- Neutralizing Activity IC50 (nM), Ca2+ influx by 100 nM hCCL1 [9]: 0.32 nM
B1: 1H4 (antibody, V domains shown)
VH: EVQLVESGGRLVQPKGSLKLSCAASGFTFNTYAMYWIRQAPGKGLEWVARIRSKSNNYATYYADSVKDRFTISRDDSQSMLYLQMNNLKTEDTAMYYCVRARFYYSDYGYAMDYWGQGTSVTVSS
VL: DIVMTQAAPSVPVTPGESVSISCRSSKSLLHSNGNTYLYWFLQRPGQSPQLLIYRMSNLASGVPDRFSASGSGTAFTLRISRVEAEDVGVYYCMQHLEYPLTFGAGTKLELKR
notes: mouse hybridoma antibody
